Reference: publication PMC9052121 (RSC Advances, 2020)
Where no end group is shown, it is not given here.

Biological target: bovine insulin (bovine, UniProt P01317 85-105; P01317 25-54)
Test: ITC

bovine insulin, sequence (P01317 85-105, chain 1 of 2): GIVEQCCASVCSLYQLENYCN
bovine insulin, sequence (P01317 25-54, chain 2 of 2): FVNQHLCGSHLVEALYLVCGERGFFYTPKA

Binder	binding result	stoichiometry N
Ac-KVYYRYNGKVWWR (designed binder) [B2T_KV (N-KVYY-RYNGKVWWR-C), de novo designed 13-mer beta-hairpin peptide]	binds	
Ac-DITTRYNGKVWWR (designed binder) [B2T_TT (N-DITTRYNGKVWWR-C), de novo designed 13-mer beta-hairpin peptide]		4 peptides per insulin
Ac-DIFFRYNGKVWWR (designed binder) [B2T_FF (N-DIFF-RYNGKVWWR-C), de novo designed 13-mer beta-hairpin peptide]	binds	
